The record followed here is US20060078559A1 (EUROSCREEN S A, published 2006).

Where no end group is shown, it is not given here. [ ]: non-standard residue; d: D form. The star is where a group is joined. For = O=C*

Experiment [1] has as its target T1, human formyl peptide receptor-like 2 (FPRL2) (human) (UniProt P25089).
T1 sequence: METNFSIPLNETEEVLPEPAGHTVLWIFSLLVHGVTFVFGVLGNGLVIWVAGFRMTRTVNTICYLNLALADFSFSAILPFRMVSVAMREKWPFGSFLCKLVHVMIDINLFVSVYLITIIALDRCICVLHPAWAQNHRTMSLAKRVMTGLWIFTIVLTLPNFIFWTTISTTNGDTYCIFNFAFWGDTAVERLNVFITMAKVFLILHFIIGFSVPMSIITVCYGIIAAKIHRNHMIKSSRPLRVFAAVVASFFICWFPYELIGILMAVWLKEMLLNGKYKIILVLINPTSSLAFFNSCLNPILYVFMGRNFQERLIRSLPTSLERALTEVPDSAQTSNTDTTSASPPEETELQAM
The experiment in a line: cell-based or functional assay.

Experiment [2] addresses T2, human FPRL1 (FPR-like 1) (human, UniProt P25090 1-351).
T2 sequence: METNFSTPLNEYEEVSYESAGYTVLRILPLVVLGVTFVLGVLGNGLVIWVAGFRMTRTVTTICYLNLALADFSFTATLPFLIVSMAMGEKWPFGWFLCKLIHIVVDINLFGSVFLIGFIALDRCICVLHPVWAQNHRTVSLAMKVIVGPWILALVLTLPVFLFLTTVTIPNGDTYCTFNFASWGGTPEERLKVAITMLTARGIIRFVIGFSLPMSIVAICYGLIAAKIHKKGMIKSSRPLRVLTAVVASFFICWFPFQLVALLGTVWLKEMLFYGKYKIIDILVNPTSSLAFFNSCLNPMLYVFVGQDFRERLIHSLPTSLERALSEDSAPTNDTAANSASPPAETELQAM
The experiment in a line: cell-based or functional assay.

The target in experiment [3] is T2, human FPRL1 (FPR-like 1). Kind of experiment: cell-based or functional assay. The source holds these as a separate data set.
Experiment [4] concerns the target T3, human FPR (formyl peptide receptor) (human, UniProt P21462 1-350).
T3 chain: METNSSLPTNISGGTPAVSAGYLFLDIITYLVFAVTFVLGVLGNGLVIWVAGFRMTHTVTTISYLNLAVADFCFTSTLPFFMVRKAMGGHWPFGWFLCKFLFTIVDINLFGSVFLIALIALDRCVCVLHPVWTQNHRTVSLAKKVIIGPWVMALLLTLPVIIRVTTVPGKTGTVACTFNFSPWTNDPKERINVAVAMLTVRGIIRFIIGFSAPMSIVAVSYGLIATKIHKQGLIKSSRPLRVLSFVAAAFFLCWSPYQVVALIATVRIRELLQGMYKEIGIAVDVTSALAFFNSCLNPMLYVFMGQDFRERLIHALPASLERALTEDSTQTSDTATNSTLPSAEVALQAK
The experiment in a line: cell-based or functional assay.

The target of experiment [5] is T4, human formyl peptide receptor-like 2 (FPRL2) (human, UniProt P25089 1-353).
T4 sequence: T1 sequence
The experiment in a line: cell-based or functional assay.

Experiment [6] addresses T4, human formyl peptide receptor-like 2 …. The experiment in a line: competition binding on FPRL2-expressing CHO-K1 cells, tracer F2L-[125I]Tyr. The method, then:
(§1) FPRL2, FPRL1 and FPR-expressing CHO-K1 cells were plated in 24 wells plates (200,000 cells per well for FPRL2, and 100,000 cells per well for the two other receptors). The next day, the cells were washed twice with a KRH buffer containing 280 mM saccharose and, for FPRL1 and FPR, 0.1% NaN₃. […] Cells were washed twice with ice cold buffer, total radioactivity was recovered with 1 M NaOH and counted in a gamma counter for 2 min.
The EC50 and IC50 parameters of the dose-response curves were determined by non-linear regression using the Graphpad Prism software. The results represent the mean pEC50 or pIC50 (−Log values of EC50 or IC50 expressed in Mol/L) ± s.e.m. for at least three independent experiments (n).

Experiment [7] deals with T2, human FPRL1 (FPR-like 1). The experiment in a line: cell-based or functional assay. This is another data set of the same source.
For experiment [8], the target named is T3, human FPR (formyl peptide receptor). Kind of experiment: cell-based or functional assay.
For experiment [9] the target is unchanged. The experiment in a line: cell-based or functional assay.
Experiment [10] has as its target T1, human formyl peptide receptor-like 2 (FPRL2) (human). Kind of experiment: competition binding on FPRL2-expressing CHO-K1 cells, tracer F2L-[125I]Tyr.
The target in experiment [11] is T2, human FPRL1 (FPR-like 1). Kind of experiment: competition radioligand binding on FPRL1-expressing CHO-K1 cells, tracer [125I]-WKYMVm. As for the experimental part:
as §1

Experiment [12] has as its target T3, human FPR (formyl peptide receptor). Kind of experiment: competition radioligand binding on FPR-expressing CHO-K1 cells, tracer [125I]-WKYMVm. The method, then: as §1
Experiment [13] addresses T4, human formyl peptide receptor-like 2 …. The experiment in a line: binding assay on FPRL2-expressing CHO-K1 cells.

On to “A1, about 6 kD peptide of porcine heme-binding protein purified from porcine spleen (from UniProt P80015)”, for which the EC50, aequorin-based functional assay (native fraction A1) in [1] came to 200 nM.

For MLWRRKIGPQMTLSHAAG (also called CCL23-derived SHAAG peptide) [SHAAG peptide derived from CCL23 N-terminus], in the experiment with human FPRL1 (FPR-like 1) [2], the “EC50 (read off the curve), aequorin luminescence [FPRL1]” value was around 0.5 nM. Moreover, the “pEC50 (aequorin assay)” value in the experiment with human FPRL1 (FPR-like 1) [3] is 9.27 -Log of EC50 in Mol/L; in [4], < 6 -Log of EC50 in Mol/L; in experiment [5], < 6 -Log of EC50 in Mol/L. Further, the “pEC50 (cAMP assay)” value with human FPRL1 (FPR-like 1) [3] is 9.23 -Log of EC50 in Mol/L; in [4], < 6 -Log of EC50 in Mol/L; in [5] it was < 6 -Log of EC50 in Mol/L. In addition, in experiment [6], the “pIC50 (binding assay)” value is < 6 -Log of IC50 in Mol/L. In addition, in the experiment with human FPRL1 (FPR-like 1) [7], the “EC50 (read off the curve), inhibition of cAMP accumulation [FPRL1]” value was around 0.7 nM.

As for For-Met-Leu-Phe [FMLP (formyl-methionine-leucyl-phenylalanine)], in experiment [8], the “EC50 (read off the curve), aequorin luminescence [FPR]” value is around 0.7 nM. For the same molecule, in the experiment with human FPRL1 (FPR-like 1) [3], the “pEC50 (aequorin assay)” value is 5.94 -Log of EC50 in Mol/L and the “pEC50 (cAMP assay)” value was < 6 -Log of EC50 in Mol/L. For the same molecule, in experiment [4], the “pEC50 (aequorin assay)” value is 9.39 -Log of EC50 in Mol/L and the “pEC50 (cAMP assay)” value was 10.2 -Log of EC50 in Mol/L. Besides, in [9], the “EC50 (read off the curve), inhibition of cAMP accumulation [FPR]” value is around 0.1 nM. In [1], the pEC50 (aequorin assay) (-Log of EC50 in Mol/L) was below 6 and the pEC50 (cAMP assay) (-Log of EC50 in Mol/L) was below 6. In [10], this molecule had a pIC50 (binding assay) (-Log of IC50 in Mol/L) below 6.

B1: WKYMVm (peptide)
peptide: WKYMV[dM]
notes: Bought from Phoenix Pharmaceuticals; also called W-hexapeptide; synthetic W peptide
With B1, the “EC50 (read off the curve), aequorin luminescence [FPRL1]” value with human FPRL1 (FPR-like 1) [2] is around 0.04 nM. The “EC50 (read off the curve), aequorin luminescence [FPR]” value in [8] is around 0.7 nM. Moreover, the “pEC50 (aequorin assay)” value in experiment [5] is < 6 -Log of EC50 in Mol/L. For the same molecule, the “pIC50 (binding assay)” value in [6] was < 6 -Log of IC50 in Mol/L. Also, the “IC50 (read off the curve)” value with human FPRL1 (FPR-like 1) [11] was around 20 nM. In addition, the “IC50 (read off the curve)” value in [12] was around 70 nM. In experiment [1], this molecule had a pEC50 (aequorin assay) (-Log of EC50 in Mol/L) below 6 and a pEC50 (cAMP assay) (-Log of EC50 in Mol/L) below 6.

B2: F2L[7-21] (peptide)
peptide: NSLFGSVETWPWQVL
notes: Synthetic; also called [7-21]F2L; truncated F2L variant lacking the first six aminoacids
Consider B2, for which, in experiment [13], the binding result is “no binding”.
